Tests used:
[1] = target: RAGE ligand (not named in the glycoform binding study); experiment: binding assay of RP-HPLC glycoform fractions; method and ligand not stated; reference sample; data not shown
[2] = target: RAGE ligand (not named in the glycoform binding study); experiment: binding assay of RP-HPLC glycoform fractions; method and ligand not stated; data not shown
[3] = target: RAGE ligand (not named in the glycoform binding study); experiment: binding assay of RP-HPLC glycoform fractions; reference is the 3-glycan fraction; method and ligand not stated; data not shown

| relative binding [1] [%] | relative binding (percent of control RAGE fusion protein) [2] [%] | fold increase in binding against the 3 glycan fraction [3] [fold] | Substance |
| --- | --- | --- | --- |
| 100 |  |  | control RAGE fusion protein (mixture of 67% 3-glycan and 22% 2 glycan RAGE fusion protein) (Fc fusion) |
|  | 529 | 10 | 0-glycan RAGE fusion protein (RP-HPLC fraction of wild-type RAGE fusion protein) (Fc fusion) |

Reference: patent US20130142792A1
